Columns and labels:
hu N(A2-B2)A-avi-His [1] = target: T1, hu N(A2-B2)A-avi-His (human, biotin on the avi tag where used biotinylated); test: SPR (ProteOn XPR36), purified Fab, biotinylated antigen on NLC chip
T1 construct: chimeric soluble antigen; also called hu N(A2-B2)A-avi-His B; human CEA (A2 domain)
T1 chain: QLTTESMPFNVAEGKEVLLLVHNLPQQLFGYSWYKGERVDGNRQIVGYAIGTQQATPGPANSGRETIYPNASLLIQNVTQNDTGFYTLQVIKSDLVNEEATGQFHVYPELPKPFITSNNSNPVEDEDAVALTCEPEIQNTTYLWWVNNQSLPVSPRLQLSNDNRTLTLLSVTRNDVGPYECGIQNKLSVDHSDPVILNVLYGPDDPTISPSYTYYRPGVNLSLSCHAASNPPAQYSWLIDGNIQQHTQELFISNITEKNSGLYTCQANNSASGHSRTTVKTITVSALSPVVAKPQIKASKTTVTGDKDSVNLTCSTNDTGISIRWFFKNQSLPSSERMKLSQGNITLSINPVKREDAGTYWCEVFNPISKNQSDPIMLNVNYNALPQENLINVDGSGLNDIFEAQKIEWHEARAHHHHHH
Procedure: Affinity (KD) of purified Fab fragments was measured by surface plasmon resonance using a Proteon XPR36 machine using the same setup as described before.
About 2000, 1000, 500, and 250 RU of biotinylated N(A2B2)A-avi-His were immobilized on 4 channels of a Streptavidin-coated NLC chip in vertical orientation. As a control for non-specific binding, 2000 RU of biotinylated NA(B2)A-avi-His protein was immobilized on channel 5. For the determination of the affinity (KD) of the purified clones, injection direction was changed to horizontal orientation. Two-fold dilution series of purified Fab fragments (varying concentration ranges between 100 and 3 nM) were injected simultaneously at 100 μl/min along separate channels 1-5, with association times of 100 s, and dissociation times of 1200 s. Buffer (PBST) was injected along the sixth channel to provide an “in-line” blank for referencing. Regeneration was performed with 10 mM glycine pH 1.5 for 35 s at 50 μl/min (vertical orientation).
Association rate constants (kon) and dissociation rate constants (koff) were calculated using a simple one-to-one Langmuir binding model in ProteOn Manager v3.1 software by simultaneously fitting the association and dissociation sensorgrams. The equilibrium dissociation constant (KD) was calculated as the ratio koff/kon.

hu N(A2-B2)A-avi-His [2] = target: T1, hu N(A2-B2)A-avi-His; test: SPR (ProteOn XPR36), Fab in bacterial supernatant, biotinylated antigen on NLC chip
Text: (§1) For this experiment, about 2000, 1000, and 500 RU of biotinylated N(A2B2)A-avi-His were immobilized on 3 channels using a Streptavidin-coated NLC chip in vertical orientation. As a control for non-specific binding, 2000 RU of biotinylated NA(B2)A-avi-His protein was immobilized on channel 4. For the off-rate analysis of the identified ELISA-positive clones, injection direction was changed to horizontal orientation. Before injection, each Fab-containing bacterial supernatant was filtered and 3-fold diluted with PBS. The association time was 100 s at 100 μl/minute and dissociation times were either 600 or 1200 s. Bacterial supernatant without Fab fragment was used for referencing. Regeneration was performed with 10 mM glycine pH 1.5 for 35 s at 50 μl/min (vertical orientation).
(§2) Dissociation rate constants (koff) were calculated using a simple one-to-one Langmuir binding model in ProteOn Manager v3.1 software by simultaneously fitting the sensorgrams. […] Shortlisted clones were re-evaluated in an additional SPR experiments under the same conditions. […] Bacterial supernatant without Fab fragment was used for referencing.

NA(B2)A-avi-His = target: T2, NA(B2)A-avi-His (human, biotin on the avi tag); test: SPR (ProteOn), Fab in bacterial supernatant, 2000 RU antigen
T2 construct: chimeric soluble control antigen without the CEACAM5 A2 domain
T2 chain: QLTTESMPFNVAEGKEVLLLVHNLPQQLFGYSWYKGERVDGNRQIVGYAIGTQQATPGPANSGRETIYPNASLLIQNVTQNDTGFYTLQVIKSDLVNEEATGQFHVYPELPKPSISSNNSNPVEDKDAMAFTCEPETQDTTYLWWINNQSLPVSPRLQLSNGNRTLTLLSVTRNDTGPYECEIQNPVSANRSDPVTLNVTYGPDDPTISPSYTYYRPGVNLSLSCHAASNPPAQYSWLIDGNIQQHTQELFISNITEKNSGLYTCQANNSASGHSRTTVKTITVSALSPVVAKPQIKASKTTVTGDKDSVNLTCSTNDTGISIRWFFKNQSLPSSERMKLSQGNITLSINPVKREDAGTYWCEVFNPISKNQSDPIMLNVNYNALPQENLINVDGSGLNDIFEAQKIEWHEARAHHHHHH
Text: as §1, §2

[3] = target: T3, human CEA (CEACAM5), form in the assay not stated (human, UniProt P06731 35-685, limits assumed); test: SPR
T3 sequence: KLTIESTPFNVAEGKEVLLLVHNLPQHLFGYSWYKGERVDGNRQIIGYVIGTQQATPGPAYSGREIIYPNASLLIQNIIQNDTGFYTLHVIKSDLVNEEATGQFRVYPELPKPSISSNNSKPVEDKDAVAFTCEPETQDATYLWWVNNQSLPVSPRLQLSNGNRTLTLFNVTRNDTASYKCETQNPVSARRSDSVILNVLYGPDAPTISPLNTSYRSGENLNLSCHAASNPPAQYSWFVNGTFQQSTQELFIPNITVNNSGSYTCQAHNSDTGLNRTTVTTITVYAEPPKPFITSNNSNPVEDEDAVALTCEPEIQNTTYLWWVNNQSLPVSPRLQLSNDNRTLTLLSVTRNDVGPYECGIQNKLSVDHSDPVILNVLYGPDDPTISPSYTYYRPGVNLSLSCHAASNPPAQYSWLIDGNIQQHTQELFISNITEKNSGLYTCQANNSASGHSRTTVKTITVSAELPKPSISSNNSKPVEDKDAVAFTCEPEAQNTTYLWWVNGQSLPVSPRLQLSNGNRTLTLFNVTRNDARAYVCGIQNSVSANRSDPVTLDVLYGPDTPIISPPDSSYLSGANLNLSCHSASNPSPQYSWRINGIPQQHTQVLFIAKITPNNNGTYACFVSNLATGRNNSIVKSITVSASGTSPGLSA

B1: A5H1EL1D Fab (phagemid-derived) (Fab, V domains shown)
VH: EVQLLESGGGLVQPGGSLRLSCAASGFTFTDYYMNWVRQAPGKGLEWLGFIGNKANAYTTEYSASVKGRFTISRDKSKNTLYLQMNSLRAEDTATYYCTRDRGLRFYFDYWGQGTTVTVSS
VL: EIVLTQSPATLSLSPGERATLSCRASSSVTYIHWYQQKPGQAPRSWIYATSNLASGIPARFSGSGSGTDFTLTISSLEPEDFAVYYCQHWSSKPPTFGQGTKLEIK
notes: Flag tag; also called parental humanized clone A5H1EL1D
Kd (hu N(A2-B2)A-avi-His [1]): 2.3 nM | koff (hu N(A2-B2)A-avi-His [1]): 0.000248 s⁻¹ | kon (hu N(A2-B2)A-avi-His [1]): 108000 M⁻¹ s⁻¹ | koff (hu N(A2-B2)A-avi-His [2]): 0.00031 s⁻¹

B2: P006.038 Fab (Fab, V domains shown)
VH: EVQLLESGGGLVQPGGSLRLSCAASGFTFTDYYMNWVRQAPGKGLEWLGFIGNKANAYTTEYSASVKGRFTISRDKSKNTLYLQMNSLRAEDTATYYCTRDRGIRFGFDYWGQGTTVTVSS
VL: EIVLTQSPATLSLSPGERATLSCRASSSVTYIHWYQQKPGQAPRSWIYATSNLASGIPARFSGSGSGTDFTLTISSLEPEDFAVYYCQHWSSVPPTFGQGTKLEIK
notes: Fab from E. coli (supernatant or IMAC-purified); Flag tag; also called CEA (P006.038)
Kd (hu N(A2-B2)A-avi-His [1]): 0.25 nM | koff (hu N(A2-B2)A-avi-His [1]): 5.78e-05 s⁻¹ | kon (hu N(A2-B2)A-avi-His [1]): 225000 M⁻¹ s⁻¹ | binding result (NA(B2)A-avi-His): no binding | koff (hu N(A2-B2)A-avi-His [2]): 7.41e-05 s⁻¹

B3: P002.139 Fab (Fab, V domains shown)
VH: EVQLLESGGGLVQPGGSLRLSCAASGFYFTDYAMNWVRQAPGKGLEWLGVISNKANAYTTEYSASVKGRFTISRDKSKNTLYLQMNSLRAEDTATYYCTRDRGLRFYFDYWGQGTTVTVSS
VL: EIVLTQSPATLSLSPGERATLSCHASSSVTYIHWYQQKPGQAPRSWIYATSNLASGIPARFSGSGSGTDFTLTISSLEPEDFAVYYCQHWSSKPPTFGQGTKLEIK
notes: Fab from E. coli (supernatant or IMAC-purified); Flag tag; also called CEA (P002.139)
Kd (hu N(A2-B2)A-avi-His [1]): 0.63 nM | koff (hu N(A2-B2)A-avi-His [1]): 6.53e-05 s⁻¹ | kon (hu N(A2-B2)A-avi-His [1]): 105000 M⁻¹ s⁻¹ | binding result (NA(B2)A-avi-His): no binding | koff (hu N(A2-B2)A-avi-His [2]): 6.47e-05 s⁻¹

B4: P001.177 Fab (Fab, V domains shown)
VH: EVQLLESGGGLVQPGGSLRLSCAASGFYFTDYYMNWVRQAPGKGLEWLGFISNKANAYTTEYSASVKGRFTISRDKSKNTLYLQMNSLRAEDTATYYCTRDRGLRFYFDYWGQGTTVTVSS
VL: EIVLTQSPATLSLSPGERATLSCRASSSVTYIHWYQQKPGQAPRSWIYATSNLASGIPARFSGSGSGTDFTLTISSLEPEDFAVYYCQHWSSKPPTFGQGTKLEIK
notes: Fab from E. coli (supernatant or IMAC-purified); Flag tag; also called CEA (P001.177)
Kd (hu N(A2-B2)A-avi-His [1]): 0.29 nM | koff (hu N(A2-B2)A-avi-His [1]): 7.85e-05 s⁻¹ | kon (hu N(A2-B2)A-avi-His [1]): 267000 M⁻¹ s⁻¹ | binding result (NA(B2)A-avi-His): no binding | koff (hu N(A2-B2)A-avi-His [2]): 9.81e-05 s⁻¹

B5: P005.103 Fab (Fab, V domains shown)
VH: EVQLLESGGGLVQPGGSLRLSCAASGFTFTDYYMNWVRQAPGKGLEWLGFIGNKANAYTTEYSASVKGRFTISRDKSKNTLYLQMNSLRAEDTATYYCTRDRGIRFYFDYWGQGTTVTVSS
VL: EIVLTQSPATLSLSPGERATLSCRASSSVTYIHWYQQKPGQAPRSWIYATSNLASGIPARFSGSGSGTDFTLTISSLEPEDFAVYYCQHWSSISPTFGQGTKLEIK
notes: Fab from E. coli (supernatant or IMAC-purified); Flag tag; also called CEA (P005.103)
Kd (hu N(A2-B2)A-avi-His [1]): 0.5 nM | koff (hu N(A2-B2)A-avi-His [1]): 4.99e-05 s⁻¹ | kon (hu N(A2-B2)A-avi-His [1]): 100000 M⁻¹ s⁻¹ | binding result (NA(B2)A-avi-His): no binding | koff (hu N(A2-B2)A-avi-His [2]): 5.37e-05 s⁻¹

B6: P005.097 Fab (Fab, V domains shown)
VH: EVQLLESGGGLVQPGGSLRLSCAASGFTFTDYYMNWVRQAPGKGLEWLGFIGNKANAYTTEYSASVKGRFTISRDKSKNTLYLQMNSLRAEDTATYYCTRDRGLRFSFDYWGQGTTVTVSS
VL: EIVLTQSPATLSLSPGERATLSCRASSSVTYIHWYQQKPGQAPRSWIYATSNLASGIPARFSGSGSGTDFTLTISSLEPEDFAVYYCQHWSSQPPTFGQGTKLEIK
notes: Fab from E. coli (supernatant or IMAC-purified); Flag tag; also called CEA (P005.097)
Kd (hu N(A2-B2)A-avi-His [1]): 0.91 nM | koff (hu N(A2-B2)A-avi-His [1]): 8.54e-05 s⁻¹ | kon (hu N(A2-B2)A-avi-His [1]): 94000 M⁻¹ s⁻¹ | binding result (NA(B2)A-avi-His): no binding | koff (hu N(A2-B2)A-avi-His [2]): 8.87e-05 s⁻¹

B7: P005.102 Fab (Fab, V domains shown)
VH: EVQLLESGGGLVQPGGSLRLSCAASGFTFTDYYMNWVRQAPGKGLEWLGFIGNKANAYTTEYSASVKGRFTISRDKSKNTLYLQMNSLRAEDTATYYCTRDRGIRFQFDYWGQGTTVTVSS
VL: EIVLTQSPATLSLSPGERATLSCRASSSVTYIHWYQQKPGQAPRSWIYATSNLASGIPARFSGSGSGTDFTLTISSLEPEDFAVYYCQHWSSKSPTFGQGTKLEIK
notes: Fab from E. coli (supernatant or IMAC-purified); Flag tag; also called CEA (P005.102)
Kd (hu N(A2-B2)A-avi-His [1]): 0.29 nM | koff (hu N(A2-B2)A-avi-His [1]): 3.92e-05 s⁻¹ | kon (hu N(A2-B2)A-avi-His [1]): 134000 M⁻¹ s⁻¹ | binding result (NA(B2)A-avi-His): no binding | koff (hu N(A2-B2)A-avi-His [2]): 4.24e-05 s⁻¹

B8: A5H1EL1D humanized anti-CEA antibody (format in the assay not stated) (antibody, V domains shown)
VH: EVQLLESGGGLVQPGGSLRLSCAASGFTFTDYYMNWVRQAPGKGLEWLGFIGNKANAYTTEYSASVKGRFTISRDKSKNTLYLQMNSLRAEDTATYYCTRDRGLRFYFDYWGQGTTVTVSS
VL: EIVLTQSPATLSLSPGERATLSCRASSSVTYIHWYQQKPGQAPRSWIYATSNLASGIPARFSGSGSGTDFTLTISSLEPEDFAVYYCQHWSSKPPTFGQGTKLEIK
notes: also called huA5B7; 3-23A5-1E / A5-L1D
Kd [3]: ~2.5 nM

B9: A5B7 parental murine anti-CEA antibody (antibody, V domains shown)
VH: EVKLVESGGGLVQPGGSLRLSCATSGFTFTDYYMNWVRQPPGKALEWLGFIGNKANGYTTEYSASVKGRFTISRDKSQSILYLQMNTLRAEDSATYYCTRDRGLRFYFDYWGQGTTLTVSS
VL: QTVLSQSPAILSASPGEKVTMTCRASSSVTYIHWYQQKPGSSPKSWIYATSNLASGVPARFSGSGSGTSYSLTISRVEAEDAATYYCQHWSSKPPTFGGGTKLEIK
notes: also called parental chimeric antibody
Kd [3]: ~0.8 nM
